Results from patent publication US20090324601A1 (published 2009).
Substitutions are numbered along the chain they refer to. One block for each binder: values may come before it.

How the values were obtained:
[1] = target: PDGFR-beta (UniProt P09619 33-530, limits assumed); experiment: method not described
[2] = target: CSF-1R (UniProt P07333 20-512, limits assumed); experiment: method not described
[3] = target: c-kit (UniProt P10721 26-520, limits assumed); experiment: method not described
[4] = target: FLT3 (UniProt P36888 27-541, limits assumed); experiment: method not described
[5] = target: T1, PDGFR-alpha on MG-63 cells (human, UniProt P16234 24-1089); experiment: cell-based or functional assay
T1 sequence (P16234 24-1089): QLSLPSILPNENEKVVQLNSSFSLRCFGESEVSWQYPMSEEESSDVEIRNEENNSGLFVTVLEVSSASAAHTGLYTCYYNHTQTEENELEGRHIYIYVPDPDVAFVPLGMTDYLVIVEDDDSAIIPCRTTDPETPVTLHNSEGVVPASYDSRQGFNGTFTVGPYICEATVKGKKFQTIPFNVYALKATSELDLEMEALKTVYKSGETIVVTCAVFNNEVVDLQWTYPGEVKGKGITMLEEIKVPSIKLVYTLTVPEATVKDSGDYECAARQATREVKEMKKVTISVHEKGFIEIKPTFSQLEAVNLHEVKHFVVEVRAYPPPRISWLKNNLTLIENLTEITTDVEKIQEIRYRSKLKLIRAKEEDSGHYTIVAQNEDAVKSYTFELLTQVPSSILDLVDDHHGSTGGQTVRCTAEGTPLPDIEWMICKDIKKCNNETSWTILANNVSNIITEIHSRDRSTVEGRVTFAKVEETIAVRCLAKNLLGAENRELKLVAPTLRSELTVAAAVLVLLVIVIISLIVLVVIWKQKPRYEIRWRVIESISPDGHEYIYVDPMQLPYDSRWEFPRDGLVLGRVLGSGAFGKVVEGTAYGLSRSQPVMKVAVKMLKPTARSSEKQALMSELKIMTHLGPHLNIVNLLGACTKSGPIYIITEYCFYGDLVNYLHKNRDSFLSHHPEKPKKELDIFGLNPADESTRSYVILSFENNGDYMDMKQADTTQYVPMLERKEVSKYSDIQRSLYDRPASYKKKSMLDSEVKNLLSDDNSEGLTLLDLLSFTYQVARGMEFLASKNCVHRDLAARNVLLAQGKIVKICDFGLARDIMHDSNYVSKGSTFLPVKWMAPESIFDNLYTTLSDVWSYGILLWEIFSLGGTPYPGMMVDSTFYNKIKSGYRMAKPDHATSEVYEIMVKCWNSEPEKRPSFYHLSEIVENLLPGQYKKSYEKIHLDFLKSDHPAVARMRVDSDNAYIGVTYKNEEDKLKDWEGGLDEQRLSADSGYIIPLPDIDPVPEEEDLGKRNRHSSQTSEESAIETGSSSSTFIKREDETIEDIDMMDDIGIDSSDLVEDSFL

[6] = target: T1, PDGFR-alpha on MG-63 cells; experiment: cell-based or functional assay; remark: listed apart in the source
For Average pTyr Inhibition in this document: test concentration or dose not given here.

Sequence of CSF-1R (P07333 20-512 limits assumed): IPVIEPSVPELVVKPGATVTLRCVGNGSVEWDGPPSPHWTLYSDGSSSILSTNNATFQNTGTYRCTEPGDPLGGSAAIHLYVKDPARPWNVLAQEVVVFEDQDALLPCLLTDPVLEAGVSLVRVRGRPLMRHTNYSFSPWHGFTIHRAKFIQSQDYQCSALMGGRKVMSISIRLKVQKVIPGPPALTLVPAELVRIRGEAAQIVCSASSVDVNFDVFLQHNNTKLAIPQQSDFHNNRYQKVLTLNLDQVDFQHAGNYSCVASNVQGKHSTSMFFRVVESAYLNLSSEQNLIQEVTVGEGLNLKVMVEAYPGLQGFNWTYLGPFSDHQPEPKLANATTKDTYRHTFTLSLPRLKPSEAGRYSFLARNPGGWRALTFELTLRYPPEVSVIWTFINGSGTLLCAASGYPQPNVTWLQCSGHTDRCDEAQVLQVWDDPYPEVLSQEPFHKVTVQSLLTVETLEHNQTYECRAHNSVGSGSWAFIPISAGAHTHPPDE
Sequence of PDGFR-beta (P09619 33-530 limits assumed): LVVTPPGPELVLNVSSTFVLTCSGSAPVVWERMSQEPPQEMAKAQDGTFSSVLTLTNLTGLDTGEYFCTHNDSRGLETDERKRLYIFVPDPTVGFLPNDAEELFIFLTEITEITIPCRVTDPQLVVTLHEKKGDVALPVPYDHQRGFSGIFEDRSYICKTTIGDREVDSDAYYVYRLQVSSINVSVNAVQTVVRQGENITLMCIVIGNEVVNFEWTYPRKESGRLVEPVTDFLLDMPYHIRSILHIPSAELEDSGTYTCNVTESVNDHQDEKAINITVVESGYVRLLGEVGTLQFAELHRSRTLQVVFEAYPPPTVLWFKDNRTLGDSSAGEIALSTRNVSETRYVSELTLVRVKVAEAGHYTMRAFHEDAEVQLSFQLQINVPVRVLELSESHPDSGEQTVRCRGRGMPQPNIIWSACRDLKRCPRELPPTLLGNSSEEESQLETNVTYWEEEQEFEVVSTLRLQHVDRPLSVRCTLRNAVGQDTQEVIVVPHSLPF
Sequence of c-kit (P10721 26-520 limits assumed): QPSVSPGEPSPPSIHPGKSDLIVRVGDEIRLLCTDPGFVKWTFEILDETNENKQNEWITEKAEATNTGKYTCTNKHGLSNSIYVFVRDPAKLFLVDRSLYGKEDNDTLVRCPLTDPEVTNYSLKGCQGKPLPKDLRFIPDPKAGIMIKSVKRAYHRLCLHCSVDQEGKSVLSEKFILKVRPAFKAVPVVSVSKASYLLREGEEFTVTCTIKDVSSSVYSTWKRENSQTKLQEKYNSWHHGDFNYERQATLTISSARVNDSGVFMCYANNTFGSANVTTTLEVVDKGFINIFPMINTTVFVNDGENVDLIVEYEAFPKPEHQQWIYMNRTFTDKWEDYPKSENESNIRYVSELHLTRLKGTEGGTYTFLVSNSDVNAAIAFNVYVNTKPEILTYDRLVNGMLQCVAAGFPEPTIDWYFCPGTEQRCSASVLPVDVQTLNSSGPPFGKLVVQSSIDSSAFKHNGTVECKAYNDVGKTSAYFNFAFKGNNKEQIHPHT

binding result [1]: no binding
binding result [2]: no binding
binding result [3]: no binding
binding result [4]: no binding
B1: 2.1954.2 (antibody, V domains shown)
VH: QVQLVESGGGVVQPGRSLRLSCAASGFSFSIYGMHWVRQAPGKGLEWVAVIWFDGSNKYYADSVKGRFTISRDNSKNTLYLQMNSLRAEDTALYYCARDKASYYGSGMDYWGQGTLVTVSS
VL: EIVLTQSPGTLSLSPGERATLSCRASQSVSSTYLAWYQHRPGQAPRLLISGASRRATGIPDRFSGSGSGTDFTLTISRLEPEDFAVYYCQHYGSSFTWTFGQGTKVEIK
notes: Variable regions only

Average pTyr Inhibition [5]: > 100%
PROLIFERATION ASSAY: MG-63 CELLS, IC50 [6]: 6.5 nM
B2: 2.1623.2 (antibody, V domains shown)
VH: QVQLVESGGGLVKPGGSLRLSCAASGFTFSDYYMNWIRQAPGKGLEWVSFISSSGSTIYYADSVKGRFTISRDNAKNSLYLQMNSLRAEDTAVYYCARDGHIAARGMDVWGQGTTVTVSS
VL: DIQMTQSPSSLSASVGDRVTITCRASQSFSRYINWYQQKPGKAPKLLIYAASSLQGGVPSRFSGSGSGTDFTLAISSLQPEDFATYYCQQTYSTPPITFGQGTRLEIK

Average pTyr Inhibition [5]: > 100%
PROLIFERATION ASSAY: MG-63 CELLS, IC50 [6]: 18 nM
B3: 2.1853.3 (antibody, V domains shown)
VH: B2 VH with F50Y, T57I, H101R, A103V
VL: B2 VL with S12C, Q27R, F29I, S30T, I33L, A50G, G56S, A74T, T91S

Average pTyr Inhibition [5]: 93%
PROLIFERATION ASSAY: MG-63 CELLS, IC50 [6]: 3.72 nM
B4: 2.737.1.4 (antibody, V domains shown)
VH: B2 VH with S30R, N35S, S49A, T57I, Y80F
VL: B2 VL with F29I, S30N, R31K, G56S, S63N, L73F, A74T, S76N, S77T

Average pTyr Inhibition [5]: > 100%
PROLIFERATION ASSAY: MG-63 CELLS, IC50 [6]: 3.3 nM
B5: 2.2071.1.3 (antibody, V domains shown)
VH: B2 VH with F50Y, T57I, H101R, A103V
VL: B2 VL with I21L, Q27H, F29I, S30N, G56S, S65N, A74T, T91S, K108T

Average pTyr Inhibition [5]: 93%
PROLIFERATION ASSAY: MG-63 CELLS, IC50 [6]: 5 nM
B6: 2.796.2 (antibody, V domains shown)
VH: B2 VH with F50Y, T57I
VL: B2 VL with A74T, T94N

binding result [1]: no binding
binding result [2]: no binding
binding result [3]: no binding
binding result [4]: no binding
B7: 2.737.1.4 (antibody, V domains shown)
VH: B2 VH with S30R, N35S, S49A, T57I, Y80F
VL: B2 VL with F29I, S30N, R31K, G56S, S63N, L73F, A74T, S76N, S77T
notes: Variable regions only

Average pTyr Inhibition [5]: 98%
PROLIFERATION ASSAY: MG-63 CELLS, IC50 [6]: 2.3 nM
B8: 2.414.2 (antibody, V domains shown)
VH: QLQLQESGPGLVKPSETLSLTCTVSGGSISSSNYYWGWIRQPPGKGLEWIGTIYYTGSTYYNPSLKSRVTISVDTSKNQFSLKLSSVTAADTAVYYCARHHWVFDYWGQGTLVTVSS
VL: EIVLTQSPDFLSVTPKEKVTITCRASQIIGSSLHWYQQKPDQSPKLLIKYASQSFSGVPSRFSGSGSGTDFTLTLNSLEAEDAATYYCHQSTILPWTFGQGTKVEIK

binding result [1]: no binding
binding result [2]: no binding
binding result [3]: no binding
binding result [4]: no binding
B9: 2.84.3 (antibody, V domains shown)
VH: B8 VH with S28F, N33S, T56S, S58T, P63S, K77Q
VL: B8 VL with I2V, L11Q, V19I, S31T, Q38K, D70E, L75I, A83T, I93N
notes: Variable regions only; also called 2.84.1; 2.84.2

Average pTyr Inhibition [5]: 91%
PROLIFERATION ASSAY: MG-63 CELLS, IC50 [6]: 4.35 nM
B10: 2.542.2 (antibody, V domains shown)
VH: B8 VH with N33T, T56S, S85N
VL: B8 VL with K45N, F55V

binding result [1]: no binding
binding result [2]: no binding
binding result [3]: no binding
binding result [4]: no binding
B11: 2.414.2 (antibody, V domains shown)
VH: B8 VH
VL: B8 VL
notes: Variable regions only

binding result [1]: no binding
binding result [2]: no binding
binding result [3]: no binding
binding result [4]: no binding
B12: 2.998.2 (antibody, V domains shown)
VH: B8 VH with G27D, S32F, N33I, T56S, S85R, L112Q
VL: B8 VL with E1D, S7F, L11Q, I28V, L75I, A80V, I106V
notes: Variable regions only

binding result [1]: no binding
binding result [2]: no binding
binding result [3]: no binding
binding result [4]: no binding
B13: 2.542.2 (antibody, V domains shown)
VH: B8 VH with N33T, T56S, S85N
VL: B8 VL with K45N, F55V
notes: Variable regions only

PROLIFERATION ASSAY: MG-63 CELLS, IC50 [6]: 2.8 nM
B14: 5.16.1 (antibody, V domains shown)
VH: QVQLVQSGAEVKKPGASVKVSCKASGYTFTSYYMYWVRQAPGQGLEWMGIINPSGGSTSYAQKFQGRVTMTRDTSTSTVYMELSSLRSEDTAVYYCARGSSPFFDYWGQGTLVTVSS
VL: DIQMTQSPSSLSASVGDRVTITCRASQIISHFLNWYQQKPGKAPKLLVYVASSLQSGVPSRFSGSGSGTDFTLTISSLQPEDFATYYCQQSFSIPLTFGGGTKVEIK

Average pTyr Inhibition [5]: 97%
PROLIFERATION ASSAY: MG-63 CELLS, IC50 [6]: 4.3 nM
B15: 2.351.3 (antibody, V domains shown)
VH: QVQLVQSGAEVKKPGASVKVSCKASGYTFIGYYLHWVRQAPGQGLEWMGSINPNSGGTNYAQKFQGRVTMIRDTSINTAYMELSRLRSDDTAVYYCARDKRITMVRGVHYLYYGWDVWGQGTTVTVSS
VL: DIQMTQSPSSLSASVGDRVTITCRASQVISNYLAWYQQKPGKVPQLLIYAASTLQSGVPSRFSGSGSGTDFTLTISSLQPEDVATYYCQNYKSAPWTFGQGTKVEIK

binding result [1]: no binding
binding result [2]: no binding
binding result [3]: no binding
binding result [4]: no binding
B16: 3.805.1.3 (antibody, V domains shown)
VH: QVQLVESGGGVVQPGRSLRLSCAASGFTFSSYGMHWVRQAPGKGLEWVAVIWYDRSNKYYADSVKGRFTISRDNSKNTLYLQMNSLRAEDTAVYYCAGGRSRGAFDYWGQGTLVTVSS
VL: DIQMTQSPSSVSASVGDRVTITCRASQGISSWLAWYQQKPGKAPNLLIYAASSLQSGVPSRFSGSGSGTDFTLTISSLQPEDFATYYCQRTNNFPRTFGQGTKVEIK
notes: Variable regions only

Average pTyr Inhibition [5]: > 100%
PROLIFERATION ASSAY: MG-63 CELLS, IC50 [6]: 3.1 nM
B17: 3.341.2 (antibody, V domains shown)
VH: EVQLVESGGGLVQPGGSLRLSCAASGFTFSSYSMNWVRQAPGKGLEWVSFISGSSSTMYYADSVKGRFTISRDNAKNSLYLQMNSLRDEDTAVYYCARLRYFDWSYAFDIWGQGTMVTVSS
VL: DIQMTQSPSSVSTSVGDRVTITCRASQGIRSWLAWYQQRPGKAPKLLIYAASSLQNGVPSRFSGSGSGTDFTLTISSLQPEDFATYFCQQATSFPFTFGPGTKVDIN

binding result [1]: no binding
binding result [2]: no binding
binding result [3]: no binding
binding result [4]: no binding
B18: 3.341.1 (antibody, V domains shown)
VH: B17 VH
VL: B17 VL
notes: Variable regions only; the assays name clone 3.341.2; also called 3.341.2

binding result [1]: no binding
binding result [2]: no binding
binding result [3]: no binding
binding result [4]: no binding
B19: 3.818.4 (antibody, V domains shown)
VH: B17 VH with F50Y, S56T, Y101H
VL: B17 VL with R30S, N56S, D105G, N107K
notes: Variable regions only

binding result [1]: no binding
binding result [2]: no binding
binding result [3]: no binding
binding result [4]: no binding
B20: 2.2002.3 (antibody, V domains shown)
VH: QVQLVESGGGVVQPGRSLRVSCAASGFMFRSYGMHWVRQAPGKGLEWVAVIWHDGSNKNHGDSVKGRFTISRDNSKNTLYLQMNSLRAEDTAVYYCARGRLAGGGPYYYYYYGMDVWGQGTTVTVSS
VL: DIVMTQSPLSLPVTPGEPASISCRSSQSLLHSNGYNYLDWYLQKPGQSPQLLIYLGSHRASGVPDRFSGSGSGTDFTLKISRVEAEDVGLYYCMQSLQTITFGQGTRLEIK
notes: Variable regions only
